Target: human FGFR1c + KLB receptor complex on HEK293 iLite FGF21 reporter cells (human, UniProt P11362 22-822; Q86Z14 1-1044)
Test: cell-based or functional assay

human FGFR1c + KLB receptor complex on HEK293 iLite FGF21 reporter cells, sequence (P11362 22-822, chain 1 of 2): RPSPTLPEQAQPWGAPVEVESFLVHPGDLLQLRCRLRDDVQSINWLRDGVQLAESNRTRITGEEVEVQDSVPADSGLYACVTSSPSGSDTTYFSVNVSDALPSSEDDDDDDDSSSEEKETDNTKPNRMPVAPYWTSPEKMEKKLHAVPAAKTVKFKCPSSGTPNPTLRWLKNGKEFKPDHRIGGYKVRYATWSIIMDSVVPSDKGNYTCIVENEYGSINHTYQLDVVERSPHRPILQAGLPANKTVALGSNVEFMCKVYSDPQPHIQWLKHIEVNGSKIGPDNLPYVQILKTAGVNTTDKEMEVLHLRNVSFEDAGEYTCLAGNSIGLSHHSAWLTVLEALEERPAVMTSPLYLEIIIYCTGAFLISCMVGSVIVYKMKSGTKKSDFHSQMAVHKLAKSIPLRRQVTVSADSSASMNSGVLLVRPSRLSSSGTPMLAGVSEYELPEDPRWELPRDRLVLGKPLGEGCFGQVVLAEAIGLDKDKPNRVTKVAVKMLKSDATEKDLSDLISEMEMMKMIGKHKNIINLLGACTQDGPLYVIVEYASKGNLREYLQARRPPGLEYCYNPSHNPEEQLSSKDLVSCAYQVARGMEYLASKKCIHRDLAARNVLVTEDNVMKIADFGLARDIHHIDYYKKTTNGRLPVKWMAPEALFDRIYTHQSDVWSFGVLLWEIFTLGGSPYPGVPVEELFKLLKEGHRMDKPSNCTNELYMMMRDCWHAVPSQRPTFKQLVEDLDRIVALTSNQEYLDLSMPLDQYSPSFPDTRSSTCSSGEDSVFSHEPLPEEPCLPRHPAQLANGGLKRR
human FGFR1c + KLB receptor complex on HEK293 iLite FGF21 reporter cells, sequence (Q86Z14 whole entry, chain 2 of 2): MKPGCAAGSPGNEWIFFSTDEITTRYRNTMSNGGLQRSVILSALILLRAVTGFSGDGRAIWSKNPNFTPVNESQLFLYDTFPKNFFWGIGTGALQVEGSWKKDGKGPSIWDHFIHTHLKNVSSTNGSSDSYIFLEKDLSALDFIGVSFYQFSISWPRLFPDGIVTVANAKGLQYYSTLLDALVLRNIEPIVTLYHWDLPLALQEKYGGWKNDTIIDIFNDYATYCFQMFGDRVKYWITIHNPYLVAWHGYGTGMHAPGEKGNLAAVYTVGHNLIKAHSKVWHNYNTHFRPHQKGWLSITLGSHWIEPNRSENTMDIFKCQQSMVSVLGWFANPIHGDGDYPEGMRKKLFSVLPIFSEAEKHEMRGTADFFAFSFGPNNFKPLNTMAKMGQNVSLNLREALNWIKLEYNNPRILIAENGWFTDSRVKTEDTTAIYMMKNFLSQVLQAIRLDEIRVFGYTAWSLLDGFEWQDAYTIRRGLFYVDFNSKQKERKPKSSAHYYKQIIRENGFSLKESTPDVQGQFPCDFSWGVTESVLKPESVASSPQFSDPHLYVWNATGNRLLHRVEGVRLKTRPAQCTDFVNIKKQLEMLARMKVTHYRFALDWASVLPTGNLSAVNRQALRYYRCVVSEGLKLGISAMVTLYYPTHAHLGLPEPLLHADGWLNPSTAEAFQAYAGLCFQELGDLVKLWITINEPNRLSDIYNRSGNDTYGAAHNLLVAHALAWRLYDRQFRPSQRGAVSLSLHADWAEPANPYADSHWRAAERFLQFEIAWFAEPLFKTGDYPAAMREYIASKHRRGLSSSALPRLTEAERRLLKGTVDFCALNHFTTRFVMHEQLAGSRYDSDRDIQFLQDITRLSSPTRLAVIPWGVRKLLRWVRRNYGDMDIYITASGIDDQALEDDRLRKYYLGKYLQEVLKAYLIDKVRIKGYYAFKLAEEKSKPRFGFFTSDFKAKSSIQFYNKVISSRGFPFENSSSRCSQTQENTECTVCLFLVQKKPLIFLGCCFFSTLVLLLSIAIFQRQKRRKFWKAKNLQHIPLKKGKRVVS

B1: Ab0305 (antibody, IgG4, V domains shown)
VH: QVTLKESGPVLVKPTETLTLTCTVSGFSLNNARVGVSWIRQPPGKALEWLAHIFSNDEKSYSTSLKSRLTISKDTSKSQVVLTMTNMDPVDTATYYCARSVVTGGYYYEGMDVWGQGTTVTVSS
VL: SYVLTQPPSVSVAPGQTARITCGGSNIGSESVHWYQQKPGQAPVLVVYYESDRPSGIPERFSGSNSGNTATLTISRVEAGDEADYYCQVWTGNSDHVVFGGGTKLTVLG
  EC50: 208 nM
  Emax: 647%

B2: Ab0319 (antibody, IgG4, V domains shown)
VH: QVTLKESGPVLVKPTETLTLTCTVSGFSLNNARVGVSWIRQPPGKALEWLAHIFSNDEKSYSTSLKSRLTISKDTSKSQVVLTMTNMDPVDTATYYCARSVVTGGYYYEGMDVWGQGTTVTVSS
VL: SYVLTQPPSVSVAPGQTARITCGGNNIGSESVHWYQQKPGQAPVLVVYYESDRPSGIPERFSGSNSGNTATLTISRVEAGDEADYYCQVWTGESDHVVFGGGTKLTVLG
  EC50: 0.3 nM
  Emax: 698%

B3: Ab0395 (antibody, IgG4, V domains shown)
VH: QVTLKESGPVLVKPTETLTLTCTVSGFSLNNARVGVSWIRQPPGKALEWLAHIWSNDEKSYSTSLKSRLTISKDTSKSQVVLTMTNMDPVDTATYYCARSVVTGGYYYEGMDVWGQGTTVTVSS
VL: SYVLTQPPSVSVAPGQTARITCGGNNIGSESVHWYQQKPGQAPVLVVDDSDRPSGIPERFSGSNSGNTATLTISRVEAGDEADYYCQVFDGNSAHVVFGGGTKLTVLG
  EC50: > 100 nM

B4: Ab0320 (antibody, IgG4, V domains shown)
VH: QVTLKESGPVLVKPTETLTLTCTVSGFSLNNARVGVSWIRQPPGKALEWLAHIFSNDEKSYSTSLKSRLTISKDTSKSQVVLTMTNMDPVDTATYYCARSVVTGGYYYEGMDVWGQGTTVTVSS
VL: SYVLTQPPSVSVAPGQTARITCGGSNIGSESVHWYQQKPGQAPVLVVYYESDRPSGIPERFSGSNSGNTATLTISRVEAGDEADYYCQVWTGESDHVVFGGGTKLTVLG
  EC50: 1.29 nM
  Emax: 699%

B5: Ab0315 (antibody, IgG4, V domains shown)
VH: QVTLKESGPVLVKPTETLTLTCTVSGFSLNNARVGVSWIRQPPGKALEWLAHIFSNDEKSYSTSLKSRLTISKDTSKSQVVLTMTNMDPVDTATYYCARSVVTGGYYYEGMDVWGQGTTVTVSS
VL: SYVLTQPPSVSVAPGQTARITCGGNNIGSESVHWYQQKPGQAPVLVVYYDSDRPSGIPERFSGSNSGNTATLTISRVEAGDEADYYCQVWTGESDHVVFGGGTKLTVLG
  EC50: 0.37 nM
  Emax: 806%

B6: Ab0318 (antibody, IgG4, V domains shown)
VH: QVTLKESGPVLVKPTETLTLTCTVSGFSLNNARVGVSWIRQPPGKALEWLAHIFSNDEKSYSTSLKSRLTISKDTSKSQVVLTMTNMDPVDTATYYCARSVVTGGYYYEGMDVWGQGTTVTVSS
VL: SYVLTQPPSVSVAPGQTARITCGGSNIGSESVHWYQQKPGQAPVLVVYDESDRPSGIPERFSGSNSGNTATLTISRVEAGDEADYYCQVWTGESDHVVFGGGTKLTVLG
  EC50: 0.3 nM
  Emax: 817%

B7: Ab0316 (antibody, IgG4, V domains shown)
VH: QVTLKESGPVLVKPTETLTLTCTVSGFSLNNARVGVSWIRQPPGKALEWLAHIFSNDEKSYSTSLKSRLTISKDTSKSQVVLTMTNMDPVDTATYYCARSVVTGGYYYEGMDVWGQGTTVTVSS
VL: SYVLTQPPSVSVAPGQTARITCGGSNIGSESVHWYQQKPGQAPVLVVYYDSDRPSGIPERFSGSNSGNTATLTISRVEAGDEADYYCQVWTGESDHVVFGGGTKLTVLG
  EC50: 0.45 nM
  Emax: 730%

B8: Ab0317 (antibody, IgG4, V domains shown)
VH: QVTLKESGPVLVKPTETLTLTCTVSGFSLNNARVGVSWIRQPPGKALEWLAHIFSNDEKSYSTSLKSRLTISKDTSKSQVVLTMTNMDPVDTATYYCARSVVTGGYYYEGMDVWGQGTTVTVSS
VL: SYVLTQPPSVSVAPGQTARITCGGNNIGSESVHWYQQKPGQAPVLVVYDESDRPSGIPERFSGSNSGNTATLTISRVEAGDEADYYCQVWTGESDHVVFGGGTKLTVLG
  EC50: 0.17 nM
  Emax: 968%

B9: Ab0378 (antibody, IgG4, V domains shown)
VH: QVTLKESGPVLVKPTETLTLTCTVSGFSLNNARVGVSWIRQPPGKALEWLASIWSNDEKSYSTSLKSRLTISKDTSKSQVVLTMTNMDPVDTATYYCARSVVTGGYYYEGMDVWGQGTTVTVSS
VL: SYVLTQPPSVSVAPGQTARITCGGNNIGSESVHWYQQKPGQAPVLVVDDSDRPSGIPERFSGSNSGNTATLTISRVEAGDEADYYCQVFDGNSVHVVFGGGTKLTVLG
  EC50: > 100 nM

B10: Ab0374 (antibody, IgG4, V domains shown)
VH: QVTLKESGPVLVKPTETLTLTCTVSGFSLNNARVGVSWIRQPPGKALEWLAHIWSNDEKSYSTSLKSRLTISKDTSKSQVVLTMTNMDPVDTATYYCARSVVTGGYYYEGMDVWGQGTTVTVSS
VL: SYVLTQPPSVSVAPGQTARITCGGNNIGSESVHWYQQKPGQAPVLVVDDSDRPSGIPERFSGSNSGNTATLTISRVEAGDEADYYCQVFDGNSEHVVFGGGTKLTVLG
  EC50: > 100 nM

B11: Ab0375 (antibody, IgG4, V domains shown)
VH: QVTLKESGPVLVKPTETLTLTCTVSGFSLNNARVGVSWIRQPPGKALEWLAHIWSNDEKSYSTSLKSRLTISKDTSKSQVVLTMTNMDPVDTATYYCARSVVTGGYYYEGMDVWGQGTTVTVSS
VL: CYVLTQPPSVSVAPGQTARITCGGNNIGSESVHWYQQKPGQAPVLVVDDSDRPSGIPERFSGSNSGNTATLTISRVEAGDEADYYCQVFDGNCEHVVFGGGTKLTVLG
  EC50: > 100 nM

B12: Ab0383 (antibody, IgG4, V domains shown)
VH: QVTLKESGPVLVKPTETLTLTCTVSGFSLNNARVGVSWIRQPPGKALEWLAWIFSNDEKSYSTSLKSRLTISKDTSKSQVVLTMTNMDPVDTATYYCARSVVTGGYYYEGMDVWGQGTTVTVSS
VL: SYVLTQPPSVSVAPGQTARITCGGNNIGSESVHWYQQKPGQAPVLVVDDSDRPSGIPERFSGSNSGNTATLTISRVEAGDEADYYCQVFDGNSVHVVFGGGTKLTVLG
  EC50: > 100 nM

B13: Ab0376 (antibody, IgG4, V domains shown)
VH: QVTLKESGPVLVKPTETLTLTCTVSGFSLNNARVGVSWIRQPPGKALEWLAHIWSNDEKSYSTSLKSRLTISKDTSKSQVVLTMTNMDPVDTATYYCARSVVTGGYYYEGMDVWGQGTTVTVSS
VL: SYVLTQPPSVSVAPGQTARITCGGNNIGSESVHWYQQKPGQAPVLVVDDSDRPSGIPERFSGSNSGNTATLTISRVEAGDEADYYCQVFDGNCECVVFGGGTKLTVLG
  EC50: > 100 nM

B14: Ab0373 (antibody, IgG4, V domains shown)
VH: QVTLKESGPVLVKPTETLTLTCTVSGFSLNNARVGVSWIRQPPGKALEWLAWIFSNDEKSYSTSLKSRLTISKDTSKSQVVLTMTNMDPVDTATYYCARSVVTGGYYYEGMDVWGQGTTVTVSS
VL: SYVLTQPPSVSVAPGQTARITCGGNNIGSESVHWYQQKPGQAPVLVVDDSDRPSGIPERFSGSNSGNTATLTISRVEAGDEADYYCQVHDGNCECVVFGGGTKLTVLG
  EC50: > 100 nM

B15: Ab0371 (antibody, IgG4, V domains shown)
VH: QVTLKESGPVLVKPTETLTLTCTVSGFSLNNARVGVSWIRQPPGKALEWLAWIFSNDEKSYSTSLKSRLTISKDTSKSQVVLTMTNMDPVDTATYYCARSVVTGGYYYEGMDVWGQGTTVTVSS
VL: SYVLTQPPSVSVAPGQTARITCGGNNIGSESVHWYQQKPGQAPVLVVDDSDRPSGIPERFSGSNSGNTATLTISRVEAGDEADYYCQVHDGNSEHVVFGGGTKLTVLG
  EC50: > 100 nM

B16: Ab0382 (antibody, IgG4, V domains shown)
VH: QVTLKESGPVLVKPTETLTLTCTVSGFSLNNARVGVSWIRQPPGKALEWLASIWSNDEKSYSTSLKSRLTISKDTSKSQVVLTMTNMDPVDTATYYCARSVVTGGYYYEGMDVWGQGTTVTVSS
VL: SYVLTQPPSVSVAPGQTARITCGGNNIGSESVHWYQQKPGQAPVLVVDDSDRPSGIPERFSGSNSGNTATLTISRVEAGDEADYYCQVFDGNCVCVVFGGGTKLTVLG
  EC50: > 100 nM

B17: Ab0379 (antibody, IgG4, V domains shown)
VH: QVTLKESGPVLVKPTETLTLTCTVSGFSLNNARVGVSWIRQPPGKALEWLAHIWSNDEKSYSTSLKSRLTISKDTSKSQVVLTMTNMDPVDTATYYCARSVVTGGYYYEGMDVWGQGTTVTVSS
VL: CYVLTQPPSVSVAPGQTARITCGGNNIGSESVHWYQQKPGQAPVLVVDDSDRPSGIPERFSGSNSGNTATLTISRVEAGDEADYYCQVFDGNCVHVVFGGGTKLTVLG
  EC50: > 100 nM
  Emax: 171%

B18: Ab0372 (antibody, IgG4, V domains shown)
VH: QVTLKESGPVLVKPTETLTLTCTVSGFSLNNARVGVSWIRQPPGKALEWLAWIFSNDEKSYSTSLKSRLTISKDTSKSQVVLTMTNMDPVDTATYYCARSVVTGGYYYEGMDVWGQGTTVTVSS
VL: CYVLTQPPSVSVAPGQTARITCGGNNIGSESVHWYQQKPGQAPVLVVDDSDRPSGIPERFSGSNSGNTATLTISRVEAGDEADYYCQVHDGNCEHVVFGGGTKLTVLG
  EC50: > 100 nM

B19: Ab0381 (antibody, IgG4, V domains shown)
VH: QVTLKESGPVLVKPTETLTLTCTVSGFSLNNARVGVSWIRQPPGKALEWLAHIWSNDEKSYSTSLKSRLTISKDTSKSQVVLTMTNMDPVDTATYYCARSVVTGGYYYEGMDVWGQGTTVTVSS
VL: SYVLTQPPSVSVAPGQTARITCGGNNIGSESVHWYQQKPGQAPVLVVDDSDRPSGIPERFSGSNSGNTATLTISRVEAGDEADYYCQVFDGNCVCVVFGGGTKLTVLG
  EC50: > 100 nM

B20: Ab0377 (antibody, IgG4, V domains shown)
VH: QVTLKESGPVLVKPTETLTLTCTVSGFSLNNARVGVSWIRQPPGKALEWLAHIWSNDEKSYSTSLKSRLTISKDTSKSQVVLTMTNMDPVDTATYYCARSVVTGGYYYEGMDVWGQGTTVTVSS
VL: SYVLTQPPSVSVAPGQTARITCGGNNIGSESVHWYQQKPGQAPVLVVDDSDRPSGIPERFSGSNSGNTATLTISRVEAGDEADYYCQVFDGNSVHVVFGGGTKLTVLG
  EC50: > 100 nM

B21: Ab0380 (antibody, IgG4, V domains shown)
VH: QVTLKESGPVLVKPTETLTLTCTVSGFSLNNARVGVSWIRQPPGKALEWLASIWSNDEKSYSTSLKSRLTISKDTSKSQVVLTMTNMDPVDTATYYCARSVVTGGYYYEGMDVWGQGTTVTVSS
VL: CYVLTQPPSVSVAPGQTARITCGGNNIGSESVHWYQQKPGQAPVLVVDDSDRPSGIPERFSGSNSGNTATLTISRVEAGDEADYYCQVFDGNCVHVVFGGGTKLTVLG
  EC50: > 100 nM

Reference: patent US20220010021A1 (Sanofi, published 2022)
